Assays:
human CD24 [1] = target: T1, human CD24 (human, UniProt P25063 27-59, heavily glycosylated, GPI-anchored (as described in the background)); assay: FACS, MDA-MB-468 cells
T1 construct: whole, on cells; Target of all cell-based FACS assays; also called hCD24; Cluster of differentiation 24
T1 chain (looked up): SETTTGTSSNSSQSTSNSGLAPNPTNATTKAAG
Procedure: (§1) Sequences of some of antibodies from Table 1 were selected to generate and produce human IgG4 chimeric antibodies. […] The protocol for FACs analysis is described as follows: [0536] a. Digested cells using TrypLE™ Express Enzyme (IX); Centrifuged the harvested cells at 400 g for 5 min and discarding the supernatant. [0537] b. Washed the cells 2 times with cold FACS buffer by centrifuging at 400 g for 5 min and discarding the supernatant. [0538] c. […] Incubate at […] for 1 h. [0539] d. Washed the cells twice by using the condition in step b. Resuspended the cells with 100 μl/well diluted 2nd antibody, incubated at 4 degree for 1 h in the dark. [0540] e. Washed the cells twice by using the condition in step b. Resuspended the cells with 100 μl/well cold FACS buffer. Kept the cells in dark for FACS analysis.

human CD24 [2] = target: T1, human CD24; assay: FACS, Nalm1 cells
Procedure: as §1

human CD24 [3] = target: T1, human CD24; assay: FACS, MCF7 cells
Procedure: as §1

human CD24 [4] = target: T1, human CD24; assay: FACS, CHOK1-hCD24 cells
Procedure: as §1

human CD24 [5] = target: T1, human CD24; assay: FACS, 293F-hCD24 cells
Procedure: as §1

human CD24 [6] = target: T1, human CD24; assay: FACS, 5637 cells
Procedure: as §1

human CD24 [7] = target: T1, human CD24; assay: cell-based or functional assay
human CD24 [8] = target: T1, human CD24; assay: FACS, HT-29 cells
Procedure: as §1

human CD24 [9] = target: T1, human CD24; assay: FACS, H1975 cells
Procedure: (§2) Screening & Expansion: The subcloning plates were screened by Acumen assay and the subclones with good binding ability were expanded to 24-wells for confirmation tests. The specificity and cross-reactivity of these subclones were confirmed with FACs analysis. […] Fluorescent dye-conjugated secondary antibody was used to detect the binding of the primary antibody with the cells. Median fluorescence intensity (MFI) was measured by FACs analysis.

human CD24 [10] = target: T1, human CD24; assay: FACS, 5637 cells
Procedure: as §2

human CD24 [11] = target: T1, human CD24; assay: FACS, 293F-hCD24 cells
Procedure: as §2

human CD24 [12] = target: T1, human CD24; assay: FACS, H1975 cells
Procedure: as §1

human CD24 [13] = target: T1, human CD24; assay: FACS, MCF7 cells
Procedure: as §2

human CD24 [14] = target: T1, human CD24; assay: FACS, Nalm1 cells
Procedure: as §2

human CD24 [15] = target: T1, human CD24; assay: FACS, A549 cells
Procedure: as §1

Binder | EC50 (human CD24 [1]) [nM] | Max MFI (human CD24 [1]) | EC50 (human CD24 [2]) [nM] | Max MFI (human CD24 [2]) | EC50 (human CD24 [3]) [nM] | Max MFI (human CD24 [3]) | EC50 (human CD24 [4]) [nM] | Max MFI (human CD24 [4]) | EC50 (human CD24 [5]) [nM] | Max MFI (human CD24 [5]) | EC50 (human CD24 [6]) [nM] | Max MFI (human CD24 [6]) | EC50 (nM), phagocytosis against HT-29 cells (human CD24 [7]) [nM] | Max phagocytosis Index (%), phagocytosis against HT-29 cells (human CD24 [7]) [%] | other results
ch100F2E3-hIgG4 (antibody, V domains shown, chimeric) VH: QVQLQQPGAELVRPGSSVKLSCKTSDYTFTSYWMDWVKQRPGQGLEWIGNIYPSDSKTHSNQKFRDKATLTVDKSSSTAYMQLNSLTSEDSAVYYCARRGGYYGYAMDYWGQGTSVTVSS VL: DIVMTQSPSSLSVSAGEKVTMSCKSSQSLLNSGNQDNYLAWYQQKPGQPPKLLIYGASIRESGVPDRFTGSGSGTDFTLTISSVQAEDLAVYYCQNDHSYPYTFGGGTKLEIK | 7.39 | 71900 | 2.78 | 77700 | 6.85 | 7960 | > 100 | 59300 | 3.73 | 60400 | 3.42 | 20200 | 1.9 | 71.2 | –
100F2E3 (antibody, V domains shown, mouse monoclonal antibody) VH: QVQLQQPGAELVRPGSSVKLSCKTSDYTFTSYWMDWVKQRPGQGLEWIGNIYPSDSKTHSNQKFRDKATLTVDKSSSTAYMQLNSLTSEDSAVYYCARRGGYYGYAMDYWGQGTSVTVSS VL: DIVMTQSPSSLSVSAGEKVTMSCKSSQSLLNSGNQDNYLAWYQQKPGQPPKLLIYGASIRESGVPDRFTGSGSGTDFTLTISSVQAEDLAVYYCQNDHSYPYTFGGGTKLEIK | 19.6 | – | 8.88 | 58800 | 8.08 | – | 1.71 | 22300 | 11.4 | 44100 | 9.47 | – | – | – | FACS MFI (human CD24 [1]): 44000; EC50 (human CD24 [8]): 9.55 nM; Max MFI (human CD24 [8]): 2420; FACS MFI (human CD24 [9]): 6900; FACS MFI (human CD24 [10]): 22100; FACS MFI (human CD24 [11]): 44100; EC50 (human CD24 [12]): 10 nM; FACS MFI (human CD24 [13]): 7160; FACS MFI (human CD24 [14]): 58800; EC50 (human CD24 [15]): 6.58 nM; Max MFI (human CD24 [15]): 8670
ch81A1F8-hIgG4 (antibody, V domains shown, chimeric; also called chAb81A1F8; ch81A1F8-IgG4) VH: EVQLQQSGPELVKPGASVKISCKATGYLFTGYYMNWVKQSPEKSLEWIGEINPNTGDTNNNQKFKAKATMTVDRSSSTAYMQLKRLTSEDSAVYYCVRRDYGTSLDYWGQGTTLTVSS VL: DVQITQSPSYLAASPGETITINCRASKSINKYLAWYQEKPGKTNKLLIHSGSTLQSGIPSRFSGSRSGTDFTLTISNLEPEDFAMYYCQQHNEYPITFGAGTKLELK | 5.75 | 90800 | 1.31 | 101000 | 2.31 | 25400 | 3240 | 85300 | 3.35 | 117000 | 2.47 | 54100 | 0.098 | 76.6 | –
ch110D4G4-hIgG4 (antibody, V domains shown, chimeric; also called chAb110D4G4) VH: EVQLQQSGPGLVKPGASVKISCRASGYLFTGYYMNWVKQSPEKSLEWIGEINPNTGDPRYDQKFKAKATLTVDRSSSTAYMHLKSLTSEDSAVYFCARRDYGTSLDYWGQGTTLTVTS VL: DVQITQSPSYLAASPGETITINCRASKSISKYLAWYQEKPGKTNKLLIYSGSTLQSGIPSRFSGSGSGSDFTLTISSLEPEDFAMYYCQQHNEYPLTFGAGTKLELK | 5.44 | 89700 | 1.95 | 111000 | 2.01 | 22700 | 35.4 | 99500 | 2.82 | 112000 | 2.18 | 49900 | – | – | –
ch81A7A10-hIgG4 (antibody, V domains shown) VH: QVQLKESGPGLVAPLQSLSITCTVSGFSLSSYGVSWVRQLPGKGLEWLGVIWGDGSTDYHSTLTSRLSFSKDNSESQVFLKLNSLQTDDTATYYCAIFYGYDEGFAYWGQGTLVTVSA VL: ENVLTQSPAIMSAFLGEKVTMSCRASSTVNYMYWYQQKSDASPKVWIYYTSRLAPGVPARFSGSGSGNSFSLTISSMEGEDAATYYCQQFTSSPLTFGAGTKLELR | – | – | – | – | – | – | – | – | – | – | – | – | 0.157 | 78.4 | –
ch33E7E12-hIgG1 (antibody, V domains shown, chimeric) VH: EVKLEESGGGLVQPGGSMKLSCFVSGFTFSNSWMNWVRQSPEKGLEWVAQIQLKSDNYATRYVESVRGRFIISRDDSKSSVSLQMNNLRTEDTGIYYCSSGTDYWGQGTTLTVSS VL: not shown | 9.07 | 56700 | 5.8 | 109000 | 4.35 | 20600 | 2.27 | 62100 | 3.55 | 80900 | 6.44 | 42900 | 0.042 | 80.4 | –
33E7E12 (antibody, V domains shown, mouse monoclonal antibody) VH: EVKLEESGGGLVQPGGSMKLSCFVSGFTFSNSWMNWVRQSPEKGLEWVAQIQLKSDNYATRYVESVRGRFIISRDDSKSSVSLQMNNLRTEDTGIYYCSSGTDYWGQGTTLTVSS VL: not shown | 3.45 | – | 6.2 | 45500 | 2.38 | – | 1.86 | 24100 | 2.4 | 24200 | 4.37 | – | – | – | FACS MFI (human CD24 [1]): 10900; EC50 (human CD24 [8]): 3.4 nM; Max MFI (human CD24 [8]): 2450; FACS MFI (human CD24 [9]): 6110; FACS MFI (human CD24 [10]): 14100; FACS MFI (human CD24 [11]): 24200; EC50 (human CD24 [12]): 8.15 nM; FACS MFI (human CD24 [13]): 5410; FACS MFI (human CD24 [14]): 45500
ch33E7E12-hIgG4 (antibody, V domains shown, chimeric) VH: EVKLEESGGGLVQPGGSMKLSCFVSGFTFSNSWMNWVRQSPEKGLEWVAQIQLKSDNYATRYVESVRGRFIISRDDSKSSVSLQMNNLRTEDTGIYYCSSGTDYWGQGTTLTVSS VL: not shown | 6.8 | 20100 | 11.8 | 34400 | 4.75 | 16100 | 2.66 | 56600 | 4.56 | 55200 | 7.27 | 25600 | 3.25 | 33.3 | –
ch56A7E3-hIgG4 (antibody, V domains shown, chimeric) VH: EVQLQQSGPELVKPGASVKIPCKASGYTFTAYNMDWVKQSHGMSLEWIGDINPINGGTIYNQNFEGKATLTVDKSSSTAYLELRSLTSEDTAVYYCARRGSYYYGSSHYALDFWGQGTSVSVSS VL: DIQMTQITSSLSASLGDRVTITCRASQDISNYLNWYQQKPDGTVKLLIYYTSRLLSGVPSRFSGSGSGTDYSLTISNLEQEDIATYFCQQDHTLPRTFGGGTKLEIR | 18.7 | 54200 | 66.4 | 80300 | 83.7 | 22800 | 3.04 | 54100 | 3.7 | 57100 | 139 | 61100 | 4.74 | 55.2 | –

From patent US20240052052A1 (ANTENGENE BIOLOGICS, published 2024)
